Numbering of substitutions follows the chain as printed.

In patent US20180305451A1 one finds rMFI OX/EV, 10ug/ml, cHIDE1 (CR) data, which are given here for 3 molecules.

Sequences and labels used below:
B1: αhHIDE1_AbD25754_hIgG1_Ser_mAb (antibody, V domains shown)
VH: QVQLVQSGAEVKKPGASVKVSCKASGYTFSGYGMHWVRQAPGQGLEWMGIISPSNGNTNYAQKFQGRVTMTRDTSISTAYMELSRLRSEDTAVYYCAREVYYGLDVWGQGTLVTVSS
VL: DIQMTQSPSSLSASVGDRVTITCRASQSISSWLNWYQQKPGKAPQLLIYGASSLQSGVPSRFSGSGSGTDFTLTISSLQPEDFATYYCQQYISIPITFGQGTKVEIK
B2: αhHIDE1_AbD25760_hIgG1_Ser_mAb (antibody, V domains shown)
VH: QVQLVQSGAEVKKPGSSVKVSCKASGGTFSDYAINWVRQAPGQGLEWMGGIIPNFGTANYAQKFQGRVTITADESTSTAYMELSSLRSEDTAVYYCARGMRSLGGLSYYFDLWGQGTLVTVSS
VL: B1 VL with S30N, W32Y, Q45K, G50A, S93H, I94Y
B3: αhHIDE1_AbD25755_hIgG1_Ser_mAb (antibody, V domains shown)
VH: QVQLVQSGAEVKKPGSSVKVSCKASGGTFSSYAISWVRQAPGQGLEWMGGIVPKFGTAYYAQKFQGRVTITADESTSTAYMELSSLRSEDTAVYYCARENLVYSAIAIWGQGTLVTVSS
VL: B1 VL with S28D, S31N, Q45K, Y91V, I92T, I94T, I96F

The target of the test is cyno HIDE1 (cyno). Kind of test: FACS, Geo mean ratio of HEK293 cells over-expressing cyno HIDE1 to HEK293 empty vector, antibody 10 ug/ml. For orientation: A flow cytometer gives signals particle by particle.
Sequence of cyno HIDE1 (cyno) (chain, as listed by the source limits assumed, form in doubt): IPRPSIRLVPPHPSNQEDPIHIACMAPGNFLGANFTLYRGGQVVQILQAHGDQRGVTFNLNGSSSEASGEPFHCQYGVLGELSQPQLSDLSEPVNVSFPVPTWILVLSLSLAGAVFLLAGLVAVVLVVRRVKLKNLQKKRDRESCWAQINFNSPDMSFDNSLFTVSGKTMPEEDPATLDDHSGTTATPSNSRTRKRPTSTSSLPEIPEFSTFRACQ
Take B1: the rMFI OX/EV, 10ug/ml, cHIDE1 (CR) came out at 353.

As to B2, the rMFI OX/EV, 10ug/ml, cHIDE1 (CR) was 132.

As for B3, the rMFI OX/EV, 10ug/ml, cHIDE1 (CR) was found to be 328.
